{"source": "patent US8722622B2", "about": "“FGF21 conjugates and anti-diabetic uses thereof” (COVX Technologies Ireland, Limited, priority 2010, dated 2014)", "molecules": {"B1": {"name": "Ab-L1-FGF21ΔH-H125C: FGF21ΔH-H125C combined with L1 at H125C and conjugated with h38C2 (conjugate, listed as Homo sapiens)", "chain": "PIPDSSPLLQFGGQVRQRYLYTDDAQQTEAHLEIREDGTVGGAADQSPESLLQLKALKPGVIQILGVKTSRFLCQRPDGALYGSLHFDPEACSFRELLLEDGYNVYQSEAHGLPLHLPGNKSPHRDPCPRGPARFLPLPGLPPALPEPPGILAPQPPDVGSSDPLSMVGPSQGRSPSYAS", "modifications": "conjugated via L1 linker to h38C2 antibody"}, "B2": {"name": "FGF21ΔH-K56-K59R-K69R-K122: FGF21 lysine mutant, SEQ ID NO:21 (protein, listed as Homo sapiens)", "chain": "PIPDSSPLLQFGGQVRQRYLYTDDAQQTEAHLEIREDGTVGGAADQSPESLLQLRALRPGVIQILGVRTSRFLCQRPDGALYGSLHFDPEACSFRELLLEDGYNVYQSEAHGLPLHLPGNKSPHRDPAPRGPARFLPLPGLPPAPLEPPGILAPQPPDVGSSDPLSMVGPSQGRSPSYAS"}, "B3": {"name": "FGF21ΔH-K56R-K59R-K69-K122R: FGF21 lysine mutant, SEQ ID NO:20 (protein, listed as Homo sapiens)", "chain": "PIPDSSPLLQFGGQVRQRYLYTDDAQQTEAHLEIREDGTVGGAADQSPESLLQLRALRPGVIQILGVKTSRFLCQRPDGALYGSLHFDPEACSFRELLLEDGYNVYQSEAHGLPLHLPGNRSPHRDPAPRGPARFLPLPGLPPAPLEPPGILAPQPPDVGSSDPLSMVGPSQGRSPSYAS"}, "B4": {"name": "FGF21ΔH-K56-K59R-K69R-K122R: FGF21 lysine mutant, SEQ ID NO:18 (protein, listed as Homo sapiens)", "chain": "PIPDSSPLLQFGGQVRQRYLYTDDAQQTEAHLEIREDGTVGGAADQSPESLLQLKALRPGVIQILGVRTSRFLCQRPDGALYGSLHFDPEACSFRELLLEDGYNVYQSEAHGLPLHLPGNRSPHRDPAPRGPARFLPLPGLPPAPLEPPGILAPQPPDVGSSDPLSMVGPSQGRSPSYAS"}, "B5": {"name": "FGF21ΔH-D79C: FGF21 cysteine mutant, SEQ ID NO:13 (protein, listed as Homo sapiens)", "chain": "PIPDSSPLLQFGGQVRQRYLYTDDAQQTEAHLEIREDGTVGGAADQSPESLLQLKALKPGVIQILGVKTSRFLCQRPCGALYGSLHFDPEACSFRELLLEDGYNVYQSEAHGLPLHLPGNKSPHRDPAPRGPARFLPLPGLPPALPEPPGILAPQPPDVGSSDPLSMVGPSQGRSPSYAS"}, "B6": {"name": "FGF21ΔH-K56R-K59-K69R-K122R: FGF21 lysine mutant, SEQ ID NO:19 (protein, listed as Homo sapiens)", "chain": "PIPDSSPLLQFGGQVRQRYLYTDDAQQTEAHLEIREDGTVGGAADQSPESLLQLRALKPGVIQILGVRTSRFLCQRPDGALYGSLHFDPEACSFRELLLEDGYNVYQSEAHGLPLHLPGNRSPHRDPAPRGPARFLPLPGLPPAPLEPPGILAPQPPDVGSSDPLSMVGPSQGRSPSYAS"}}, "key": {"[1]": {"test": "Intrinsic tryptophan fluorescence thermal unfolding", "assay_type": "physicochemical", "description": "Thermal stability of the two candidates was also investigated using intrinsic protein tryptophan fluorescence by measuring midpoint of transition (Tm-FL) of temperature-induced unfolding. This assay monitors changes in tertiary structure semi-quantitatively upon unfolding induced by high temperature."}, "[2]": {"test": "Differential scanning calorimetry (DSC)", "assay_type": "physicochemical", "details": "temperature-induced unfolding", "procedure": "Thermal stability of the two candidates was investigated using DSC by measuring midpoint of transition (Tm) of temperature-induced unfolding. The Tm value of the major unfolding transition for h38C2 was 73.5° C."}, "ob/ob mice": {"test_system": "ob/ob mice", "test": "Mouse efficacy in ob/ob mice (OGTT, body weight, liver, gene expression)", "assay_type": "in vivo", "details": "ob/ob mice; for mean glucose AUC % during OGTT: single dose 10 mg/ml as printed (FIG. 6B)", "procedure": "The efficacy of FGF21 antibodies conjugates was evaluated in two murine obese insulin resistant models—ob/ob mice and high-fat diet-induced obese mice. For both models, male mice (6-8 weeks of age for ob/ob, 12-14 weeks of age for DIO with high-fat diet initiated at 6 weeks of age) were housed 2-4/cage and FGF21 antibody conjugates were administered by SC injection. Body weight was measured daily in the morning. Glucose tolerance was assessed by oral glucose tolerance test. Briefly, mice were fasted for 4-5 hrs in the morning of the day of testing. A basal blood sample was obtained and blood glucose levels were determined using a portable glucometer. Following basal sample, glucose was administered by oral gavage, and blood samples were drawn from 15 to 120 mins thereafter.\nFor […] expression, frozen visceral WAT samples collected from the in vivo efficacy studies were homogenized. Total RNA was extracted from the tissue homogenates, and Glut1 and GAPDH mRNA expression was measured using a Quantitect Probe RT-PCR kit and running a quantitative real time PCR reaction in a Taqman machine (Applied Biosystems). The effect of treatment was determined by a fold change in Glut1 mRNA levels normalized by the GAPDH mRNA levels from each sample."}, "[3]": {"set-up": "species or system Swiss-Webster mice", "details": "mouse, in vivo, sc", "procedure": "The PK of FGF21 antibody conjugates were examined in mice after IV or SC administration. […] Antibody conjugates concentrations in serum were determined using an ELISA which captured the FGF21 portion of the antibody conjugates through a monoclonal anti-hFGF21 antibody bound to a 96-well plate. FGF21 antibody conjugates bound to the plate were detected through an anti-hFc monoclonal antibody, and concentrations were determined using a standard curve of the PK dosing solution diluted into serum-containing assay buffer. SC bioavailability was calculated as the ratio of the area-under the curve (AUC) of the SC serum concentration profile divided by the AUC of the IV serum concentration profile."}, "[4]": {"test_system": "Glut1 mRNA expression in differentiated 3T3-L1 adipocytes", "test": "Glut1 Taqman assay", "assay_type": "cell-based", "details": "differentiated 3T3-L1 adipocytes, 6 hrs; read-out: EC50 in Glut1 Taqman assay", "procedure": "Differentiated 3T3-L1 adipocytes were used to measure the Glut1 mRNA expression by qPCR method. Overnight serum starved day 10-14 differentiated 3T3-L1 adipocytes were treated with compounds for 6 hrs. Total RNA was extracted from these cells, and Glut1 and GAPDH mRNA expression was measured using a Quantitect Probe RT-PCR kit and running a quantitative real time PCR reaction in a Taqman machine (Applied Biosystems®). The bioactivity of the compounds was determined by a fold change in Glut1 mRNA levels normalized by the GAPDH mRNA levels from each sample. EC50 values as measurements of the potency of the compounds were obtained from the dose response curves in the assay.\n3T3-L1 adipocytes were seeded at day 8 in 24-well tissue culture plates (Falcon®, Cat#353047), and incubated in DMEM complete medium (10% FBS, 2 mM L-glutamine, 1% P/S) at 37° C., 5% CO2. […] The medium was aspirated, and then RNA extracted from the cells using the RNeasy mini Kit according to the manufacturer's instructions. RNA was measured at A260 nm using the Spectramax® Plus spectrophotometer."}, "[5]": {"test_system": "Differentiated 3T3-L1 adipocytes", "test": "Glucose uptake assay", "assay_type": "cell-based", "details": "3T3-L1 adipocytes, 24 hrs", "procedure": "Differentiated 3T3-L1 adipocytes were treated with compounds in the absence of serum for 24 hrs. Cells were then incubated with ^14C-2-deoxyglucose for 1 hr and glucose uptake into the cells was quantitated in Wallac 1450 MicroBeta (Trilux) instrument. Glucose uptake was expressed in counts per min (CPM). EC50 values as measurements of the potency of the compounds were obtained from the dose response curves in the assay."}, "[6]": {"assay_type": "physicochemical", "procedure": "FGF21ΔH-D79C mutant protein was produced in E. coli and purified as described above. FGF21ΔH-D79C was expressed from 1 L of culture. A 150 mg inclusion body was obtained and 85 mg purified protein was obtained, representing a 60% yield. To test the stability of FGF21ΔH-D79C as well as FGF21ΔH (SEQ ID NO:2), freshly thawed samples were kept at 4° C. over seven days, and examined for their integrity by RP-HPLC, SEC_HPLC, Ellman assay and SDS-PAGE on day 0, 3 and 7. […] PBS (pH7.4) and 20 mM Tris-HCl 50 mM NaCl (pH7.5) made no significant difference of stability of FGF21ΔH-D79C.\nIt is possible that the solubility of FGF21ΔH-D79C may be reduced at pH6.0. The stability of FGF21ΔH-D79C was examined upon multiple freeze/thaw cycles. The proteins were repeated to freeze (−80 C) and thaw (4° C.) 9 times."}}}
{"molecule": "h38C2: humanized aldolase catalytic antibody h38C2 IgG1, SEQ ID NOS:25 and 26", "values": [{"measurement": "Tm-FL of the major unfolding transition", "setting": "[1]", "value": "approximately 74.1 °C"}, {"measurement": "Tm of the major unfolding transition (DSC)", "setting": "[2]", "value": 73.5, "unit": "°C"}]}
{"molecule": "B1", "values": [{"measurement": "body weight gain", "setting": "ob/ob mice", "value": "reduce body weight gain"}, {"measurement": "glucose tolerance", "setting": "ob/ob mice", "value": "improve glucose tolerance"}, {"measurement": "Mean Glucose AUC (% of vehicle control) during OGTT", "setting": "ob/ob mice; single SC dose 1 mg/kg (FIGS. 4A, 4B)", "value": "87 % of vehicle control"}, {"measurement": "Mean Glucose AUC (% of vehicle control) during OGTT", "setting": "ob/ob mice; single SC dose 3 mg/kg (FIGS. 4A, 4B)", "value": "66 % of vehicle control"}, {"measurement": "Cumulative body weight change, mean body weight", "setting": "ob/ob mice; single dose 10 mg/kg (FIG. 6A)", "value": 0.8, "unit": "g"}, {"measurement": "mean glucose AUC % during OGTT", "setting": "ob/ob mice", "value": 51, "unit": "%"}, {"measurement": "Tm-FL of the major unfolding transition", "setting": "[1]", "value": "~79.7", "unit": "°C"}, {"measurement": "Tm of the major unfolding transition (DSC)", "setting": "[2]", "value": 79, "unit": "°C"}, {"measurement": "SC bioavailability", "setting": "[3]", "value": 67, "unit": "%"}, {"measurement": "EC50", "setting": "[4]", "value": 3.2, "unit": "nM"}]}
{"molecule": "B2", "values": [{"measurement": "EC50", "setting": "[5]", "value": 1.7, "unit": "nM"}, {"measurement": "EC50", "setting": "[4]", "value": 2.6, "unit": "nM"}]}
{"molecule": "B3", "values": [{"measurement": "EC50", "setting": "[5]", "value": 5.2, "unit": "nM"}, {"measurement": "EC50", "setting": "[4]", "value": 1.3, "unit": "nM"}]}
{"molecule": "B4", "values": [{"measurement": "EC50", "setting": "[5]", "value": 5.5, "unit": "nM"}, {"measurement": "EC50", "setting": "[4]", "value": 0.9, "unit": "nM"}]}
{"molecule": "B5", "values": [{"measurement": "stability upon freeze/thaw cycles", "setting": "[6]", "value": "Neither sample showed any difference"}, {"measurement": "fraction oxidized at pH 6.0", "setting": "[6]; 4° C., three-day incubation", "value": "more than half"}, {"measurement": "stability at neutral pH 7.4", "setting": "[6]; pH 7.4", "value": "stable"}, {"measurement": "Cumulative body weight change, mean body weight", "setting": "ob/ob mice; single dose 2 mg/kg (FIG. 6A)", "value": 2.1, "unit": "g"}, {"measurement": "mean glucose AUC % during OGTT", "setting": "ob/ob mice", "value": 54, "unit": "%"}, {"measurement": "EC50", "setting": "[4]", "value": 2.1, "unit": "nM"}]}
{"molecule": "B6", "values": [{"measurement": "EC50", "setting": "[5]", "value": 0.9, "unit": "nM"}, {"measurement": "EC50", "setting": "[4]", "value": 0.6, "unit": "nM"}]}
